# Laboratory results published in publication doi:10.1101/2021.10.20.465058 (bioRxiv, 2021).
# B1: TqsA (transporter of quorum-sensing signal AI-2) from E. coli (natural protein, Escherichia coli K-12, UniProt P0AFS5 1-344, looked up)
# chain: MAKPIITLNGLKIVIMLGMLVIILCGIRFAAEIIVPFILALFIAVILNPLVQHMVRWRVPRVLAVSILMTIIVMAMVLLLAYLGSALNELTRTLPQYRNSIMTPLQALEPLLQRVGIDVSVDQLAHYIDPNAAMTLLTNLLTQLSNAMSSIFLLLLTVLFMLLEVPQLPGKFQQMMARPVEGMAAIQRAIDSVSHYLVLKTAISIITGLVAWAMLAALDVRFAFVWGLLAFALNYIPNIGSVLAAIPPIAQVLVFNGFYEALLVLAGYLLINLVFGNILEPRIMGRGLGLSTLVVFLSLIFWGWLLGPVGMLLSVPLTIIVKIALEQTAGGQSIAVLLSDLNKE
# B2: YhhT, AI-2 exporter from E. coli (natural protein, Escherichia coli K-12, UniProt P0AGM0 1-349, looked up)
# chain: METPQPDKTGMHILLKLASLVVILAGIHAAADIIVQLLLALFFAIVLNPLVTWFIRRGVQRPVAITIVVVVMLIALTALVGVLAASFNEFISMLPKFNKELTRKLFKLQEMLPFLNLHMSPERMLQRMDSEKVVTFTTALMTGLSGAMASVLLLVMTVVFMLFEVRHVPYKMRFALNNPQIHIAGLHRALKGVSHYLALKTLLSLWTGVIVWLGLELMGVQFALMWAVLAFLLNYVPNIGAVISAVPPMIQVLLFNGVYECILVGALFLVVHMVIGNILEPRMMGHRLGMSTMVVFLSLLIWGWLLGPVGMLLSVPLTSVCKIWMETTKGGSKLAILLGPGRPKSRLPG
# B3: PerM, AI-2 exporter from E. coli (natural protein, Escherichia coli K-12, UniProt P0AFI9 1-353, looked up)
# chain: MLEMLMQWYRRRFSDPEAIALLVILVAGFGIIFFFSGLLAPLLVAIVLAYLLEWPTVRLQSIGCSRRWATSIVLVVFVGILLLMAFVVLPIAWQQGIYLIRDMPGMLNKLSDFAATLPRRYPALMDAGIIDAMAENMRSRMLTMGDSVVKISLASLVGLLTIAVYLVLVPLMVFFLLKDKEQMLNAVRRVLPRNRGLAGQVWKEMNQQITNYIRGKVLEMIVVGIATWLGFLLFGLNYSLLLAVLVGFSVLIPYIGAFVVTIPVVGVALFQFGAGTEFWSCFAVYLIIQALDGNLLVPVLFSEAVNLHPLVIILSVVIFGGLWGFWGVFFAIPLATLIKAVIHAWPDGQIAQE
# B4: Aq_740, AI-2 exporter from Aquifex aeolicus (natural protein, UniProt O66948 1-353, looked up)
# chain: MNKLSLFVYLFFFLSFLFLFLYLLQPFFNPIVWAIVFGIVLYPLYGFIKRKLKSENLAAFLVIFIVLVAIVIPFTIFAVITAQQIIVFSIKVVNFVQTHSVNDLINSLKEIPFLKEKRESLEPLLNYLQSEEFRRALINALNSILTFVGDRLRSYVYTAGTSLFHVFVFLLTLFFILRDGEKVLKEIINSIPMKREDLEEILKTIYRTVLAVIYGTVGTAVAQSIMGFIGYSLAGVEFALIWALITFFAAFVPPFGAAFVWVPMDIYLFTTKGIKEGLILLFFGTFLISTMDNIVRPLVMKQGIKLPYVALFFSTIGGLIKFGFIGVFLGPIILSTMLASVKIYRRRVIHSGI
# B5: YdiK, AI-2 exporter from E. coli (natural protein, Escherichia coli K-12, UniProt P0AFS7 1-370, looked up)
# chain: MVNVRQPRDVAQILLSVLFLAIMIVACLWIVQPFILGFAWAGTVVIATWPVLLRLQKIMFGRRSLAVLVMTLLLVMVFIIPIALLVNSIVDGSGPLIKAISSGDMTLPDLAWLNTIPVIGAKLYAGWHNLLDMGGTAIMAKVRPYIGTTTTWFVGQAAHIGRFMVHCALMLLFSALLYWRGEQVAQGIRHFATRLAGVRGDAAVLLAAQAIRAVALGVVVTALVQAVLGGIGLAVSGVPYATLLTVLMILSCLVQLGPLPVLIPAIIWLYWTGDTTWGTVLLVWSGVVGTLDNVIRPMLIRMGADLPLILILSGVIGGLIAFGMIGLFIGPVLLAVSWRLFAAWVEEVPPPTDQPEEILEELGEIEKPNK
# Assays:
# cryo-EM structure [1] = molecular target: the molecule itself; assay: cryo-EM structure
# [2] = molecular target: the molecule itself; assay: single-particle cryo-EM, 2D class averages only
# native gel or EMSA = molecular target: the molecule itself; assay: native gel or EMSA
# cryo-EM structure [3] = molecular target: the molecule itself; assay: cryo-EM structure; remark: listed apart in the source
protein,measurement,setting,value
B1,stoichiometry N,cryo-EM structure [1],5
B2,stoichiometry N,[2],5
B3,stoichiometry N,native gel or EMSA,2
B4,stoichiometry N,cryo-EM structure [3],5
B5,stoichiometry N,cryo-EM structure [1],5
